# Laboratory results: PMC3606058 (Structure (London, England : 1993), 2013)
# T1: Pf Cmr2dHD (Pf1129), HD-domain-deleted Cmr2, N-terminally poly-histidine tagged (Pyrococcus furiosus, UniProt Q8U1S6 213-871)
# T1 sequence (looked up): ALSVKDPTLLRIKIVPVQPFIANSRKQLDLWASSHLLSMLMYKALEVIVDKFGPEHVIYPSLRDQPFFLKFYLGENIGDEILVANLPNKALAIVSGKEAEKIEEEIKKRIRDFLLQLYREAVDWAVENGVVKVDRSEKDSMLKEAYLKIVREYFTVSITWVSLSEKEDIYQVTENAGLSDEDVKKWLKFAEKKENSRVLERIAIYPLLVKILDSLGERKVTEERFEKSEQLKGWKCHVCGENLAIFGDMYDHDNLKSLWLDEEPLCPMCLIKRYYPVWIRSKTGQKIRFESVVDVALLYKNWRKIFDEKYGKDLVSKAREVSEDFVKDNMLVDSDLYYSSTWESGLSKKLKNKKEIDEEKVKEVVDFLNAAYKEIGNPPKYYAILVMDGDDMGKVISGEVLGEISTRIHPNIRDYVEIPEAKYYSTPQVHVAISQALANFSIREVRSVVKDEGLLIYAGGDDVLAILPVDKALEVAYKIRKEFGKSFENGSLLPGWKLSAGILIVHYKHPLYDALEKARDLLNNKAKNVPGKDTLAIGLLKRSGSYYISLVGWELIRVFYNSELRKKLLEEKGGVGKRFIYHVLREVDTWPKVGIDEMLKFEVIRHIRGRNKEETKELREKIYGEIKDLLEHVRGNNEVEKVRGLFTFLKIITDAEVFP
# Target: T1, Pf Cmr2dHD (Pf1129), HD-domain-deleted …
# Assay: crystal structure
binder,measurement,value
"Pf Cmr3 (Pf1128), untagged (natural protein, Pyrococcus furiosus) MIEVTFTPYDVLLFRESRPFDAGSESVARSIIPLPQTVAGAIRTLLFYKGLKNCVGVGEEEPEFTLVGIAIGTEKGRIYPLPFNIIKSEKFYKVVNPGRFLGKLILPPKGKYKSGYVTESILEKYLKGELKEVEENKVIRIEKEKRIGIKLSREKKVVEEGMLYTVEFLRIEKIYAWIEDPGCGIKDILSSYEFLTLGGESRVAFVEVDDKTPDIFNRELGSTKKALFYFSTPTIGKVGEIVQELEKRLNAKIDDYLLVSSRPTAISGWDMHEKKPKGTKFAIPPGSVLFVEFKEEVEVPPYIKLGKLKKLGYGLALGGIWE",stoichiometry N,1 Cmr3:Cmr2dHD
